One test deals with Fzd5CRD. Description: SPR. (In general: SPR reads the build-up and loss of mass on a sensor chip optically.)
A further test concerns the target Fzd7CRD. Nature of the test: SPR.
Another test concerns the target Fzd1CRD. Nature of the test: SPR.
In another test the target is T1, Fz8-CRD (UniProt Q9H461 32-151, fluorescence-conjugated).
T1 chain: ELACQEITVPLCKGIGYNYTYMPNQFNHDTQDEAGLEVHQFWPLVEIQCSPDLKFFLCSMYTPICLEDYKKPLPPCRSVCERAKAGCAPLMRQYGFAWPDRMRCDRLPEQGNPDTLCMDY
Description: SPR.

In the next test the target is Fz27C3. Description: yeast surface titration.
The next test concerns the target Fz27C49. Description: yeast surface titration.

B1: scFv(Onco)-DKK1c (other)
chain: MLLVNQSHQGFNKEHTSKMVSAIVLYVLLAAAAHSAFAADPIELTQPPSVSVAPGQTARISCSGDNIGSFYVHWYQQKPGQAPVLVIYDKSNRPSGIPERFSGSNSGNTATLTISGTQAEDEADYYCQSYANTLSLVFGGGTKLTVLGTTAASGSSGGSSSGAEVQLVESGGGLVQPGGSLRLSCAASGFTFSHYTLSWVRQAPGKGLEWVSVISGDGSYTYYADSVKGRFTISSDNSKNTLYLQMNSLRAEDTAVYYCARNFIKYVFANWGQGTLVTVSGSGSGKMYHTKGQEGSVCLRSSDCASGLCCARHFWSKICKPVLKEGQVCTKHRRKGSHGLEIFQRCYCGEGLSCRIQKDHHQASNSSRLHTCQRHHHHHHH
A word on the Kd: it is the constant that tells how readily two partners part at equilibrium. A low value points to tighter binding. In the case of B1, the dissociation constant Kd worked out at 750 pM in the test with Fzd5CRD, 820 pM in the test with Fzd7CRD, 1100 pM with Fzd1CRD and 1400 pM in the test with Fz8-CRD.

B2: Fzd8-CRD (receptor)
chain: T1 chain
modifications: fluorescence-conjugated
As to B2, the results for the Kd with Fz27C3 and in the test with Fz27C49 were about 122 pM and about 92 pM, respectively.

(Values after US20210403578A1 (published 2021).)
